Test [1] concerns the target C108 SOSIP.664 trimer (HIV-1 (isolate C108.c03)). The test is described as follows: SEC; PGT145-affinity-purified SOSIPs on a Superdex 200 10-300 GL column in PBS.
For test [2] the target is unchanged. In words: negative-stain EM; PGT145-purified SOSIPs; class averages.
Test [3] has as its target WITO SOSIP.664 trimer (HIV-1 (isolate WITO4160.33)). The test is described as follows: SEC; PGT145-affinity-purified SOSIPs on a Superdex 200 10-300 GL column in PBS.
Test [4] has the same target. The test is described as follows: negative-stain EM; PGT145-purified SOSIPs; class averages.
Test [5] concerns the target MGRM8 SOSIP.664 trimer (HIV-1 (isolate MGRM_AG_002_8)). In words: SEC; PGT145-affinity-purified SOSIPs on a Superdex 200 10-300 GL column in PBS.
For test [6] the target is unchanged. The test is described as follows: negative-stain EM; PGT145-purified SOSIPs; class averages.
The target in test [7] is CRF250 SOSIP.664 trimer (HIV-1 (isolate CRF-T250-4)). The test is described as follows: SEC; PGT145-affinity-purified SOSIPs on a Superdex 200 10-300 GL column in PBS.
Test [8] has the same target. In words: negative-stain EM; PGT145-purified SOSIPs; class averages.

As for C108 SOSIP.664 trimer (complex), the stoichiometry N in test [1] and in test [2] was 3 throughout.
In the case of WITO SOSIP.664 trimer (complex), the stoichiometry N in test [3] and in test [4] was 3 in each case.
Turning to MGRM8 SOSIP.664 trimer (complex), the stoichiometry N in test [5] and in test [6] was 3 each time.
Consider CRF250 SOSIP.664 trimer (complex), for which the stoichiometry N in test [7] and in test [8] was 3 each time.

The values above are taken from paper PMC5640805.
